Measurements taken from patent US20220089704A1 (Biogen, published 2022).

Experiments:
Human alpha-synuclein [1] = target: T1, Human alpha-synuclein (human, UniProt P37840 1-140); assay: direct binding ELISA, plates coated with human alpha-synuclein, anti-hIgG-HRP detection
Excerpt: (§1) FIG. 46A is a graph showing alpha-synuclein direct binding ELISA. Human alpha-synuclein was coated on ELISA plates, treated with several dilutions of test reagents, and antibody binding at the indicated concentrations was detected with an HRP conjugated anti-hIgG secondary, measured by absorbance at 450 nm.

Human alpha-synuclein [2] = target: T1, Human alpha-synuclein; assay: direct binding ELISA, plates coated with human alpha-synuclein; 12F4 hIgG1 as reference
Excerpt: as §1

binding result (Human alpha-synuclein [1]) | binding result (Human alpha-synuclein [2]) | Binder
binds |  | FC5-H62(T33C/A104C)-12F4(LC) hIgG4P/G1 agly (bispecific antibody) heavy: EVQLVESGGGLVEPGGSLRLSCAVSGFDFEKAWMSWVRQAPGQGLQWVARIKSTADGGTTSYAAPVEGRFIISRDDSRNMLYLQMNSLKTEDTAVYYCTSAHWGQGTLVTVSSASTKGPSVFPLAPCSRSTSESTAALGCLVKDYFPEPVTVSWNSGALTSGVHTFPAVLQSSGLYSLSSVVTVPSSSLGTKTYTCNVDHKPSNTKVDKRVESKYGPPCPPCPAPEFLGGPSVFLFPPKPKDTLMISRTPEVTCVVVDVSQEDPEVQFNWYVDGVEVHNAKTKPREEQFQSTYRVVSVLTVLHQDWLNGKEYKCKVSNKGLPSSIEKTISKAKGQPREPQVYTLPPSRDELTKNQVSLTCLVKGFYPSDIAVEWESNGQPENNYKTTPPVLDSDGSFFLYSKLTVDKSRWQQGNVFSCSVMHEALHNHYTQKSLSLSPG light: DVQLVESGGGLVQPGGSLRLSCAASGFKITHYCTGWFRQAPGKEREFVSRITWGGDNTFYSNSVKGRFTISRDNSKNTVYLQMNSLRAEDTAVYYCAAGSTSTCTPLRVDYWGQGTLVTVSSGGGGSSYELTQPPSVSVSPGQTARITCSGEALPMQFAHWYQQRPGKAPVIVVYKDSERPSGVPERFSGSSSGTTATLTITGVQAEDEADYYCQSPDSTNTYEVFGGGTKLTVLSQPKAAPSVTLFPPSSEELQANKATLVCLISDFYPGAVTVAWKADSSPVKAGVETTTPSKQSNNKYAASSYLSLTPEQWKSHRSYSCQVTHEGSTVEKTVAPTECS
binds |  | FC5-H62(T33C/A104C)-12F4(LC) hIgG1 agly (N297Q) (bispecific antibody, also called FC5-H62(T33C/A104C)-12F4 hIgG1 agly) heavy: not shown light: DVQLVESGGGLVQPGGSLRLSCAASGFKITHYCTGWFRQAPGKEREFVSRITWGGDNTFYSNSVKGRFTISRDNSKNTVYLQMNSLRAEDTAVYYCAAGSTSTCTPLRVDYWGQGTLVTVSSGGGGSSYELTQPPSVSVSPGQTARITCSGEALPMQFAHWYQQRPGKAPVIVVYKDSERPSGVPERFSGSSSGTTATLTITGVQAEDEADYYCQSPDSTNTYEVFGGGTKLTVLSQPKAAPSVTLFPPSSEELQANKATLVCLISDFYPGAVTVAWKADSSPVKAGVETTTPSKQSNNKYAASSYLSLTPEQWKSHRSYSCQVTHEGSTVEKTVAPTECS
 | binds | 12F4 hIgG1 (antibody, V domains shown, also called anti-alpha synuclein (12F4); 12F4 without FC5 attached) VH: EVQLVESGGGLVEPGGSLRLSCAVSGFDFEKAWMSWVRQAPGQGLQWVARIKSTADGGTTSYAAPVEGRFIISRDDSRNMLYLQMNSLKTEDTAVYYCTSAHWGQGTLVTVSS VL: SYELTQPPSVSVSPGQTARITCSGEALPMQFAHWYQQRPGKAPVIVVYKDSERPSGVPERFSGSSSGTTATLTITGVQAEDEADYYCQSPDSTNTYEVFGGGTKLTVLS

Continued, binder first:

Binder | binding result (Human alpha-synuclein [1]) | binding result (Human alpha-synuclein [2])
FC5-H62(T33C/A104C)-12F4(LC) hIgG1 (bispecific antibody, also called hFC5.2-12F4(LC) hIgG1; FC5-H62(T33C/A104C)-12F4 hIgG1) heavy: not shown light: DVQLVESGGGLVQPGGSLRLSCAASGFKITHYCTGWFRQAPGKEREFVSRITWGGDNTFYSNSVKGRFTISRDNSKNTVYLQMNSLRAEDTAVYYCAAGSTSTCTPLRVDYWGQGTLVTVSSGGGGSSYELTQPPSVSVSPGQTARITCSGEALPMQFAHWYQQRPGKAPVIVVYKDSERPSGVPERFSGSSSGTTATLTITGVQAEDEADYYCQSPDSTNTYEVFGGGTKLTVLSQPKAAPSVTLFPPSSEELQANKATLVCLISDFYPGAVTVAWKADSSPVKAGVETTTPSKQSNNKYAASSYLSLTPEQWKSHRSYSCQVTHEGSTVEKTVAPTECS | binds | 
FC5-H62(T33C/A104C)-12F4(LC) hIgG2 SAA (bispecific antibody) heavy: EVQLVESGGGLVEPGGSLRLSCAVSGFDFEKAWMSWVRQAPGQGLQWVARIKSTADGGTTSYAAPVEGRFIISRDDSRNMLYLQMNSLKTEDTAVYYCTSAHWGQGTLVTVSSASTKGPSVFPLAPCSRSTSESTAALGCLVKDYFPEPVTVSWNSGALTSGVHTFPAVLQSSGLYSLSSVVTVPSSNFGTQTYTCNVDHKPSNTKVDKTVERKSCVECPPCPAPPAAAPSVFLFPPKPKDTLMISRTPEVTCVVVDVSHEDPEVQFNWYVDGVEVHNAKTKPREEQFNSTFRVVSVLTVVHQDWLNGKEYKCKVSNKGLPAPIEKTISKTKGQPREPQVYTLPPSREEMTKNQVSLTCLVKGFYPSDIAVEWESNGQPENNYKTTPPMLDSDGSFFLYSKLTVDKSRWQQGNVFSCSVMHEALHNHYTQKSLSLSPG light: DVQLVESGGGLVQPGGSLRLSCAASGFKITHYCTGWFRQAPGKEREFVSRITWGGDNTFYSNSVKGRFTISRDNSKNTVYLQMNSLRAEDTAVYYCAAGSTSTCTPLRVDYWGQGTLVTVSSGGGGSSYELTQPPSVSVSPGQTARITCSGEALPMQFAHWYQQRPGKAPVIVVYKDSERPSGVPERFSGSSSGTTATLTITGVQAEDEADYYCQSPDSTNTYEVFGGGTKLTVLSQPKAAPSVTLFPPSSEELQANKATLVCLISDFYPGAVTVAWKADSSPVKAGVETTTPSKQSNNKYAASSYLSLTPEQWKSHRSYSCQVTHEGSTVEKTVAPTECS | binds | 
